The text below walks through data of paper PMC9531428, “The diurnal emission of floral scent in Oncidium hybrid orchid is controlled by CIRCADIAN CLOCK ASSOCIATED 1 (CCA1) through the direct regulation on terpene synthase” (BMC Plant Biology, 2022).

For series [1], the target named is T1, terpene synthase (TPS; OncSBTPS) (Oncidium hybrid cultivar, UniProt A0A3R5SMM9).
T1 construct: recombinant purified protein
T1 sequence (A0A3R5SMM9 1-551): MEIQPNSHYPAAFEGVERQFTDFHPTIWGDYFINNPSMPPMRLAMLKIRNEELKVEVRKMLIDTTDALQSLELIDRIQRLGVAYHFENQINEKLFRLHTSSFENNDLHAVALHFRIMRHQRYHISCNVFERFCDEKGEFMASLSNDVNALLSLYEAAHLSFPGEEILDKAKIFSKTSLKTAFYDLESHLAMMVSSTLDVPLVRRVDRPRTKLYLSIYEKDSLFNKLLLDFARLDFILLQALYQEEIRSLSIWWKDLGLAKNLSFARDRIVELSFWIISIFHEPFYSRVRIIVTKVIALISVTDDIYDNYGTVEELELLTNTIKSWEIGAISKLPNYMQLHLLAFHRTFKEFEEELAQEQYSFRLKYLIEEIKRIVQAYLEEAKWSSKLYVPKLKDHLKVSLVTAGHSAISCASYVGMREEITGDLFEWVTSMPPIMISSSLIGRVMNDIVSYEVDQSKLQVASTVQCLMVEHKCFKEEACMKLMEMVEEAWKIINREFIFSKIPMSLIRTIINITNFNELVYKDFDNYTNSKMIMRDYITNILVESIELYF
Nature of the series: GC-MS (SPME) of reaction products. It counts as biochemical. To be noted: 37 °C, 4 h; products linalool and ocimene.

Series [2] addresses T2, OncSBCCA1 (Oncidium hybrid Sharry Baby, UniProt A0A7L5RYG3 1-622). Nature of the series: EMSA; 0-15 ug CCA1 in 10 uL; BSA; 10 uL with 2 uL 5X buffer (5X: 50 mM Tris-HCl, 750 mM KCl, 2.5 mM EDTA, 62.5% glycerol), i.e. 1X 10 mM Tris-HCl, 150 mM KCl, 0.5 mM EDTA, 12.5% glycerol; BSA; 30 min; pH and temperature not stated; native PAGE in 0.5X TAE, 150 V. The settings on record: protein: recombinant; tags: His-tag (pET28a); label: 6-FAM (ligated with T4 ligase). A general note: In EMSA bound probe runs differently from free probe, usually more slowly.

The target in series [3] is T2, OncSBCCA1. The series is described as follows: competition; 50x unlabeled competitor abolished the CCA1-probe signal; 10 uL with 2 uL 5X buffer (5X: 50 mM Tris-HCl, 750 mM KCl, 2.5 mM EDTA, 62.5% glycerol), i.e. 1X 10 mM Tris-HCl, 150 mM KCl, 0.5 mM EDTA, 12.5% glycerol; BSA; 30 min; pH and temperature not stated; native PAGE in 0.5X TAE, 150 V. The settings on record: protein: recombinant; tags: His-tag (pET28a).

T2 sequence (A0A7L5RYG3 entry or part of it): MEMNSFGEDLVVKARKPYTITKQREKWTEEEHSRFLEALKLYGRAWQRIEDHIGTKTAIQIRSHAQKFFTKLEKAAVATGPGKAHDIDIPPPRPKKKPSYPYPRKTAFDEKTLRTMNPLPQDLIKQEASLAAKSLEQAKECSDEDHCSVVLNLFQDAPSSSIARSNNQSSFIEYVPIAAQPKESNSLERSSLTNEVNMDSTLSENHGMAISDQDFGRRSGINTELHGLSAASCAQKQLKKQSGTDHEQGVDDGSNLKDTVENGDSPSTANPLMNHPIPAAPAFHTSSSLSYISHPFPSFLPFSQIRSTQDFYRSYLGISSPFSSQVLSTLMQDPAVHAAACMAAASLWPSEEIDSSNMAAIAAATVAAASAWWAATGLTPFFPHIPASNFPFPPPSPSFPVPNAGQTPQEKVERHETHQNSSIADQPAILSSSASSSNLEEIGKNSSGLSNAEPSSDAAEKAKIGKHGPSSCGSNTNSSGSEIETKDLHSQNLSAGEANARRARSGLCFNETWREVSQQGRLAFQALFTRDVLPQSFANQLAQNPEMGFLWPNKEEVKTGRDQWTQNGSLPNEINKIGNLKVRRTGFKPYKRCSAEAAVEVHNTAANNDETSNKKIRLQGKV

Turning to `CC(C)=CCC/C(C)=C/COP(=O)(O)OP(=O)(O)O` [GDP, geranyl diphosphate], the “GC-MS (SPME) of reaction products” value in series [1] was “TPS recombinant protein was purified, then fed with the precursor GDP”.

B1: CBS probe (TPS promoter, 24-mer) (dsDNA)
DNA 1: TATTTTAGAGATTTTTACATACAT
DNA 2: ATGTATGTAAAAATCTCTAAAATA
Turning to B1, the binding result in the series with OncSBCCA1 [2] is reported as “binds”.

B2: unlabeled CBS competitor (24-mer) (dsDNA)
DNA 1: TATTTTAGAGATTTTTACATACAT
DNA 2: ATGTATGTAAAAATCTCTAAAATA
As for B2, in the series with OncSBCCA1 [3], the binding result is reported as “binds”.
